B1: 1A8 (antibody, V domains shown)
VH: EVQLVESGGDLVKPGESLKLSCAASGFSFSSYDMSWVRQTPDKRLEWVTTISSGGDYTYFPDILKGRFTISRDNAKHTLYLQLSSLKSEDTAMYYCARWDSNFPHWYFDVWGTGTTVTVSS
VL: DIVLTQSPASLAVSLGQRATISCRASESVDKSGISFLHWYQQKPRQPPKLLIYRASNLESGIPGRFSGSGSRTDFTLSINPVEPDDVATYYCQQSNKDPFTFGGGTKLEIKR
notes: Entries are printed with leader peptide and part of the mouse constant region; also called LILRB2 antibody 1A8
B2: 1G3 (antibody, V domains shown)
VH: EVQLVESGGDLVKPGGSLKLSCAASGFTFSSYDMSWVRQTPDKRLEWVATISSGGSYTFYPDSVKGRFTISRDNAKNTLSLQMSSLKSEDTAIYYCARWDSNYLRWFFDVWGTGTTVTVSS
VL: DIVLTQSPASLAVSLGQRATISCRASESVDNNGISFMHWYQQKPGQSPKLLIYRASNLESGIPARFSGSGSRTDFTLTINPVETDDVATYYCQQSNDDPFTFGGGTKLEIKR
notes: Entries are printed with leader peptide and part of the mouse constant region; also called LILRB2 antibody 1G3
B3: 10F5 (antibody, V domains shown)
VH: EVQLVESGGDLVKPGGSLKLSCAASGFTFSSYDMSWVRQTPDKRLEWVATISSGASYTYYPDSVKGRFTISRDNAKNTLYLQMSSLKSEDTAIYYCARWDSKYLRWYFDVWGTGTTVTVSS
VL: DIVLTQSPASLAVSLGQRATISCRASESVDNNGISFMHWYQQKPGQSPKLLISRASNLESGIPARFSGSGSRTDFTLTINPVETDDVATYYCQQSNEDPFTFGGGTKLEIKR
notes: Entries are printed with leader peptide and part of the mouse constant region; also called LILRB2 antibody 10F5
B4: 2F10 (antibody, V domains shown)
VH: EVQLQQSGPELVKPGASVKISCKASGYTFTDDYMNWVKQSHGKSLEWIGDINPTNGDTNYNQKFKGKATLTVDKSSSTAYMELRGLTSEDSAVYYCARGSSPFTYWGQGTLVTVSA
VL: DIQMTQTTSSLSASLGDRVTISCSASQGISNYLNWYQQKPDGTVKLLIYYTSSLYSGVPSRFSGSGSGTDYSLTISNLEPEDIATYYCQQYSKLPWTFGGGTKLEIKR
notes: Entries are printed with leader peptide and part of the mouse constant region; also called LILRB2 antibody 2F10
B5: 1C8 (antibody, V domains shown)
VH: EVKLVESGGGLVQPGGSLKLSCAASGFTFSDYYMYWVRQTPEKRLEWVAYISNGGGNTYYPDTVKGRFTISRDNAKNTLYLQMSRLKSEDTAMYYCARQLEDWYFDVWGTGTTVTVSS
VL: DIVMTQSHKFMSTSVGDRVSITCKASQDVSTAVAWSQQKPGQSPKLLVYWASARHTGVPDRFTGSGSGADYTLTISSVQAEDLALYYCQQHFSTPLTFGAGTKLELKR
notes: Entries are printed with leader peptide and part of the mouse constant region; also called LILRB2 antibody 1C8
B6: 2G9 (antibody, V domains shown)
VH: EVKLVESGGGLVQPGGSLKLSCAASGFTFSDYYMYWVRQTPEKRLEWVAYISNGGGNTYYPDTVKGRFTISRDNAKNTLYLQMSRLKSEDTAMYYCARNRDDWYFDVWGTGTTVTVSS
VL: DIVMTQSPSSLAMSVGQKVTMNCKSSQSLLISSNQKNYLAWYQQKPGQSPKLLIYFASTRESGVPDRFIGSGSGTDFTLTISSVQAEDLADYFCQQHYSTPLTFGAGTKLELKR
notes: Entries are printed with leader peptide and part of the mouse constant region; also called LILRB2 antibody 2G9
B7: 4A10 (antibody, V domains shown)
VH: QVQLQQPGAELVKPGASVKLSCKASGYTFTNYWMYWVKQRPGQGLEWIGMIHPNSDSTNYNEKFKNKATLTVDRSSSTAYMQLSSLTSEDSAVYCCARGEDNYDYVMDYWGQGTSVTVSS
VL: DIVMTQAAPSVPVTPGESVSISCRSSKSLLHSYGNTHLYWFLQRPGQSPQLLIYRMSNLASGVPDRFSGSGSGTAFTLRISRVEAEDVGVYYCMQHLEYPLTFGAGTKLELKR
notes: Entries are printed with leader peptide and part of the mouse constant region; also called LILRB1 antibody 4A10
B8: 5E11 (antibody, V domains shown)
VH: QVQLKESGPGLVAPSQSLSITCTVSGFSLSSYGVNWVRQPPGKGLEWLGVIWGDGSTNYHSALISRLSISKDNSKSQVFLKLNSLQTDDTATYYCAKPNWDYYAMEYWGQGTSVTVSS
VL: DIQMTQTTSSLSASLGDRVTITCRASQDISNFLNWYQQKPDGPVKLLIYYTSRLHSGVPSRFSGSGSGTDYSLTISNLEQEDIATYFCQQGNTLPWTFGGGTKLEIKR
notes: Entries are printed with leader peptide and part of the mouse constant region; also called LILRB1 antibody 5E11
B9: 5H12 (antibody, V domains shown)
VH: QVQLKESGPGLVAPSQSLSITCTVSGFSLSSYGVNWVRQPPGKGLEWLGVIWGDGSTNYHSALISRLSISKDNSKSQVFLKLNSLQTDDTATYYCAKPNWDYYAMEYWGQGTSVTVSS
VL: GIVMTQSQKFMSSTVGDRVSITCKASQNVGAAVIWYQQKPGQSPKLLIYSASNRYTGVLDRFTGSGSGTDFTLTISNMQSEDLADYFCQQYSSYPWTFGGGTKLEIKR
notes: Entries are printed with leader peptide and part of the mouse constant region; also called LILRB1 antibody 5H12
B10: 3E12 (antibody, V domains shown)
VH: QVQLQQSGAELMKPGASVKLSCKATGYTFTGYWIEWVKQRPGHGLEWIGEILLGSGNTNYNENFKGKATLTADTSSNTAYMQLSSLTTEDSAIYYCASTHDGYWGQGTTLTVSS
VL: QFILTQSPAIMSASPGEKVTITCSASSSVSYMHWFQQKPGTSPKLWIYSTSNLASGVPARFSGSGSGTSYSLTISRMEAEDAATYYCQRRSSYPFTFGSGTKLEIKR
notes: Entries are printed with leader peptide and part of the mouse constant region; also called LILRB1 antibody 3E12
B11: 5E6 (antibody, V domains shown)
VH: QVQLQQSAAELVKPGASVKISCKVSGQSFTDHTIHWMKQRPEQGLEWIGYIFPRDGFTEYNERFKGKATLTADKSSSTAYMHLNSLTSEDSAVYFCAGNWDALDYWGPGTSVTVSS
VL: DIVLTQSPATLSVTPGDSVSLSCRASQSISKYLHWYQQKSHESPRLLIKYVSQSISGIPSRFSGSGSGTDFTLSINSVETEDFGIYFCQQSNSWPLTFGAGTKLELKR
notes: Entries are printed with leader peptide and part of the mouse constant region; also called LILRB1 antibody 5E6
B12: 6B7 (antibody, V domains shown)
VH: QIQLVQSGPELKKPGETVKISCKASGYTFTNYGLSWVKQAPGKGLKWMGWINTYSGVTTYADDFKGRFAFSLETSASTAYLQINNLKSEDTATYFCARRSYDYSHYYAMDYWGQGTSVTVSS
VL: ETTVTQSPASLSVATGEKVTIRCITSTDIDDDINWYQQKPGEPPKFLISEGNTLRPGVPSRFSSSGYGTDFVFTIENTLSEDVADYYCLQSNNMPYTFGGGTKLEIKR
notes: Entries are printed with leader peptide and part of the mouse constant region; also called LILRB1 antibody 6B7
B13: 4A11 (antibody, V domains shown)
VH: QVQLKQSGAELVRPGTSVKLSCKASGYTFTDYYINWVKQRPGQGLEWIARIYPGSGNTFYNEKFQDKATLTAEKSSSTAYMQLSSLTSEDSAVYFCANTPSYGSSHWYFDVWGTGTTVTVSS
VL: DIVMTQSHKFMSTSVGDRVSITCKASQDVNTAVAWYQQKPGQSPKLLIYWASTRHTGVPDRFTGSGSGTDFTLTISNVQSEDLADYFCQQYSTYPRTFGGGTKLEIKR
notes: Entries are printed with leader peptide and part of the mouse constant region; also called LILRB1 antibody 4A11
B14: 4H5 (antibody, V domains shown)
VH: QIQLQQSGPELVKPGASVKISCKASGYTFTDYYINWVKQRPGQGLEWIGWIYPGGDNTKYNEKFKDKATLTVDTSSSTTYMQLSSLTSEDSAVYFCARFEDKYSSNYWFAYWGQGTLVTVSA
VL: DILLTQSPAILSVSPGERVSFSCRASQYIGTSIHWYQQRTNGSPRLLIKYASESISGIPSRFSGSGSGTDFTLSINSVESEDVADYYCQQSNRWPFTFGSGTKLEIKR
notes: Entries are printed with leader peptide and part of the mouse constant region; also called LILRB1 antibody 4H5
B15: 6A11 (antibody, V domains shown)
VH: QIQLQQSGPELVKPGASVKISCKASGYTFTDYYINWVKQRPGQGLEWIGWIYPGSGNTKYNEKFKGKATLTVDTSSSTAYMQLSSLTSEDSAVYFCARFEDKHSSNYWFAYWGQGTLVTVSA
VL: DILLTQSPAILSVSPGERVSFSCRASQYIGTSIHWYQQRTNGSPRLLIKYASESISGIPSRFSGSGSGTDFTLSINSVESEDIADYYCQQSNSWPFTFGSGTKLEIKR
notes: Entries are printed with leader peptide and part of the mouse constant region; also called LILRB1 antibody 6A11
B16: 6A6 (antibody, V domains shown)
VH: QVQLQQSGPELVKPGASVKISCKASGYSFTSSYIHWVKQRPGQGLEWIGWIYPGSGNTKYNERFKGKATLTADTSSSTAYMHLSSLTSEDSAVYYCARNYGTSYGWYFDVWGTGTTVTVSS
VL: DIVMTQSQKFMSTTVGDRVSITCKASQNVGTAVAWYQQKPGQSPKLLIYSLSNRYTGVPDRFTGSGSGTDFTLTISNMQSEDLTDYFCQQYSSYPLTFGAGTKLELKR
notes: Entries are printed with leader peptide and part of the mouse constant region; also called LILRB1 antibody 6A6
B17: 1B10 (antibody, V domains shown)
VH: QVQLQQPGAELVKPGASVKLSCKASGYTFTNYWVQWVKQRPGQGLEWIGMIHPNSGSTNSNEKFKNKATLTVDRSSSTAYMQLSRLTSEDSAVYYCARGDDGYLYYFDYWGQGTTLTVSS
VL: QIVLTQSPALMSASPGEKVTMTCSASSSVSHMYWYQQKPRSSPKPWIYLTSNLASGVPARFSGSGSGTSYSLTISNMEAEDAATYYCQQWSSYAFTFGSGTKLEIKR
notes: The entries called 'variable region' are printed with the leader peptide and part of the mouse constant region; also called LILRB1 antibody 1B10
B18: 4D5 (antibody, V domains shown)
VH: QVQLQQPGAELVRPGSSVKLSCKASGYTFTSYWMDWVKQRPGQGLEWIGNIYPSDSATHYNQKFKDKATLTVDKSSSTAYMHLSSLTSEDSAVYYCARGLLQYFDVWGTGTSVTVSS
VL: DIQMTQSPASLSVSVGETVTITCRASENIYSNLAWYQQKQGKSPQLLVYGATNLADGVPSRFSGSGSGTQYSLKINSLQSEDFGSYYCQHFWGIPWTFGGGTKLEIKR
notes: Entries are printed with leader peptide and part of the mouse constant region; also called LILRB1 antibody 4D5
B19: 5B3 (antibody, V domains shown)
VH: QVQLKESGPGLVAPSQSLSITCTVSGFSLTSYGIDWVRQPPGKGLEWLGVIWGGGNTNYNSALMSRLTISKDNSKSQVFLKMNSLQTDDTAMYYCAKANWDSYAMDYWGQGTSVTVSS
VL: DIQMNQSPSSLSASLGDTITITCHASQNINFWLNWYQQKPGNIPKLLIYKASNLHTGVPSRFSGSGSGTGFTLTISSLQPEDIATYYCQQGQSYPLTFGGGTKVEIKR
notes: Entries are printed with leader peptide and part of the mouse constant region; also called LILRB1 antibody 5B3
B20: 4C2 (antibody, V domains shown)
VH: QVQLQQPGAALVKPGASVKLSCKASGYTFTSYWMHWVKQRPGQGLEWIGMIHPNSGSTNYNEKFRSEATLTVDKSSSTVYMQLSSLTSEDSAVYYCARSGDAYYDGLDYWGQGTSVTVSS
VL: DIQMNQSPSSLSASLGDTITITCHARQNINVWLSWYQQKPGNIPKLLIYKASNLHTGVSSRFSGSGSGTGFTLTISSLQPEDIATYYCQQGQSYPWTFGGGTKLEIKR
notes: Entries are printed with leader peptide and part of the mouse constant region; also called LILRB1 antibody 4C2

This is an account of results in patent US20240150462A1 (UNIVERSITY HEALTH NETWORK, published 2024).

Some results are limits rather than exact numbers.

T1 sequence (Q8N423 22-460): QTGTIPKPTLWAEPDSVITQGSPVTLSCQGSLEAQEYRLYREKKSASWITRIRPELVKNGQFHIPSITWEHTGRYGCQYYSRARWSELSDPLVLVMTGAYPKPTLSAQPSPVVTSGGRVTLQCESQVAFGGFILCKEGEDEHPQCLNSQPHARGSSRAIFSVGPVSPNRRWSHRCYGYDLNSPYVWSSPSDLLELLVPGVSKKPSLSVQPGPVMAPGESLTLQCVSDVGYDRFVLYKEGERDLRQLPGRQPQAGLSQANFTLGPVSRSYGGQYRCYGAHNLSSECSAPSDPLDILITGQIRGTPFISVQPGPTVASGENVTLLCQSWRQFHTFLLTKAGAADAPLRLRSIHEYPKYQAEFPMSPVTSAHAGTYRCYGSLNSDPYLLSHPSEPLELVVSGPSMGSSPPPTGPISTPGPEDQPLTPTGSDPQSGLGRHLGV

One test has as its target T1, Recombinant human Fc-tagged extracellular domain of LILRB2 (human, UniProt Q8N423 22-460).
T1 construct: extracellular domain; Bought from R&D Systems; also called LILRB2-Fc; not shown: Fc tag
Kind of test: SPR, Biacore X100; LILRB2-Fc amine-coupled to CM5 chip, antibody injected at 3.7-300 nM. How it is done:
(§1) Dissociation constants (Kd) for mouse anti-human LILRB1 and LIRB2 antibodies were determined using a Biacore X100 surface plasmon resonance instrument (Cytivia). Recombinant human Fc-tagged extracellular domains of LILRB1 or LILRB2 (LILRB1-Fc or LILRB2-Fc; R&D Systems) were immobilized on a Biacore CM5 biosensor chip by amine coupling at a density of 40-50 relative units (RU). Purified mouse monoclonal antibodies were injected over the biosensor in a concentration series of 3.7, 11, 33, 100, and 300 nM in HBS-EP buffer (10 mM HEPS pH 7.4, […], 3 mM EDTA, 0.005% v/v Surfactant P20) at a flow rate of 50 μL/min. Regeneration of the chip was achieved by a 30 s injection of 10 mM glycine-HCl, pH 1.7. Affinity parameters were determined by fitting response data using the accompanying Biacore X100 analysis software.
With B1, the “-log(Kd)” value came to 7.79.

As to B2, the “-log(Kd)” value was 8.05. On the same count and under the same terms, with B3 the figure was 7.95. For the molecule B4, the “-log(Kd)” value is 8.4.

Consider B5, for which the “-log(Kd)” value amounted to 7.64. For the molecule B6, the “-log(Kd)” value was 8.33.

In a further test the target is T2, Recombinant human Fc-tagged extracellular domain of LILRB1 (human, UniProt Q8NHL6 24-461).
T2 construct: extracellular domain; Bought from R&D Systems; also called LILRB1-Fc; not shown: Fc tag
T2 sequence (Q8NHL6 24-461): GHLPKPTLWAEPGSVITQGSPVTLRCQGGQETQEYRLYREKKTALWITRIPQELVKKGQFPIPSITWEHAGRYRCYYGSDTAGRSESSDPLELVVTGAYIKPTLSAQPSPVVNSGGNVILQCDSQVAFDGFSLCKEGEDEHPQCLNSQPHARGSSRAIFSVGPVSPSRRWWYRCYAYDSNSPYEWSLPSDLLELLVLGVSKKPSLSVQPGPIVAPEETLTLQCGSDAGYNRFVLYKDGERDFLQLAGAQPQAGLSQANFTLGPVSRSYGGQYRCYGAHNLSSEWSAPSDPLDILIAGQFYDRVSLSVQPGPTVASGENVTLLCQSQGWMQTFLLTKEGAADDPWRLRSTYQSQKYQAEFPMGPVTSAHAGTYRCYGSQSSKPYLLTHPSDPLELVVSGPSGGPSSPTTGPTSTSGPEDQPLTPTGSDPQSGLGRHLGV
The test is described as follows: SPR, Biacore X100; LILRB1-Fc amine-coupled to CM5 chip, antibody injected at 3.7-300 nM. The protocol:
as §1
On the technique in general: SPR reads the build-up and loss of mass on a sensor chip optically.
In the case of B7, the “-log(Kd)” value was found to be 7.89. As to B8, the “-log(Kd)” value is less than 3. Take B9: the “-log(Kd)” value turned out to be 8.26. B10: the “-log(Kd)” value came to 11.6. On the same count and under the same terms, with B11 the figure was 8.2. As to B12, the “-log(Kd)” value came out at 6.58. On the same count and under the same terms, with B13 the figure was 7.76; with B14, 12.6.

For B15, the “-log(Kd)” value turned out to be 12.4.

As for B16, the “-log(Kd)” value was 7.98. On the same count and under the same terms, with B17 the figure was 8.13; with B18, 7.89. The same measure, in the same setting: with B19 the figure was 8.76. On the same count and under the same terms, with B20 the figure was 12.7.
